This note sets out measurements from the RNAGym collection of RNA variant scans (doi:10.1021/acssynbio.7b00057).

B1: Pistol ribozyme (parent)
chain: GGGUCGUUGUUCCAUAAUCGCGUGGAUAUGGCACGCAAGUUUCUACCGGGCACCGUAAAUGUCCGACUGGAGCCGUUCGGGCGGCUAUAAACAGACCUCAGGCCCGAAGCGUGGCGGCACCUGCCGCCGGUGGUAAAAAAGAUCGGAAGAGCACACGUCU

The series covers variants of B1. The series can be described thus: aptazyme ON/OFF ratio, guanine; higher = stronger switching; co-transcriptional cleavage with and without guanine.
Consider U7C G9U U10G U11C C12A, for which the “aptazyme ON/OFF ratio” value was 1.2.
For U7C U11C C12G C13A, the “aptazyme ON/OFF ratio” value is 1.21.
Next, G9A U10C U11A C12U C13G: 1.29; G9A U10C U11A C12U C13A: 1.35; U7A U8C U10G U11G C12U C13A: 1.23.
For U7C U8C G9A C12U C13A, the “aptazyme ON/OFF ratio” value turned out to be 1.27.
Under U7C U8G G9C U10A U11C C13U stands 1.01; under U8G U10A U11C C12U C13G, 1.28.
Under U8G U10A U11C C12U C13A stands 1.2; under U7A U8A G9A U11G C12A C13G, 1.11.
Under U7C U8A G9U U10G U11A C12A C13U stands 1.21; under U8C C12A C13A, 1.24.
For U7A U8A G9U U11C C12U C13G, the “aptazyme ON/OFF ratio” value is 1.02.
Under U7A U8A G9U U10C U11A C12A C13U stands 1.23.
Next, U8G G9U U10C U11G C13G: 1.03.
Under U7A U11C C12U C13U stands 1.38.
In the case of U7A U11C C12U C13A, the “aptazyme ON/OFF ratio” value worked out at 1.27.
Under U7C U8G G9A U11A C12A C13U stands 1.24.
Next, U7C U8C G9U U11C C12U: 1.04.
Next, U8A G9C U10C U11G C12U: 1.08; U7C G9U U10A C12U C13A: 1.15.
In the case of U7C G9U U10A C12A C13U, the “aptazyme ON/OFF ratio” value was 1.36.
For the variant U7C U8A G9A U10C U11G C12U, the “aptazyme ON/OFF ratio” value is 1.22.
Next, U8G U11C C12A: 1.13; U8G U11C C12U: 1.26; U7C U8G G9A U11G C12G C13A: 1.16.
Under U8G G9C U10G C13G stands 1.12.
Under U7C U11A C12U C13A stands 1.18; under U7G U8G G9U U10A U11C C12U C13U, 1.29.
Turning to G9U U11G C13A, the “aptazyme ON/OFF ratio” value came to 1.37.
Next, U7G G9A U10A U11G C12U C13A: 1.07.
Next, U7G U8A G9A U10A U11G C13G: 1.07; U7C G9A U10A U11A C12G C13U: 1.19.
Under U7G U8G G9C U10C U11A C12G C13A stands 1.28.
Take U7G U8A G9U U10A U11C C12A C13U: the “aptazyme ON/OFF ratio” value was 1.05.
As for U7A U8A G9A U10C U11C C13U, the “aptazyme ON/OFF ratio” value amounted to 1.06.
Next, U7A U10G U11C C13U: 1.05.
Next, U7A U8G G9A U11A C12A C13G: 1.21.
Regarding G9C U11A C12G, the “aptazyme ON/OFF ratio” value turned out to be 1.47.
Next, U8A G9U U10C: 1.88; U7C U8G G9A U11G C12A C13G: 1.17; G9C C12U C13U: 1.31.
Under U7G U8G U10C C12G C13U stands 1.33; under U7G U8C G9A U10G U11C C13A, 1.14.
Under U7G U8C G9U U11G C12A C13A stands 1.11; under U7G U8A G9A U11C, 1.03; under U7A U8C G9U U10C U11G C12U C13U, 1.18.
U7A U8A U10G C12A: the “aptazyme ON/OFF ratio” value amounted to 1.33.
As for U7C G9A, the “aptazyme ON/OFF ratio” value was 1.17.
In the case of U7A U8A G9A U10A U11C C12U C13G, the “aptazyme ON/OFF ratio” value is 1.08.
Under U7G U8C U10G U11A C12U C13G stands 1.15.
Next, U7C U8C C13U: 1.56.
Next, U7A U8C G9A U10G C13U: 1.09; U7C G9A U10G U11C C12U C13U: 1.21; U7G U10G U11C C12A C13U: 1.17.
On to U8A G9U U10G C13A, for which the “aptazyme ON/OFF ratio” value stood at 1.18.
Take U7C U8C G9A U11A C12G C13U: the “aptazyme ON/OFF ratio” value was 1.23.
Under U7G U8A G9U U10G U11G C13G stands 1.17; under U7C U8G G9U U10G U11G C12U C13G, 1.18; under U10A U11G C12U, 1.52.
Next, U7C U8A G9C U10G: 1.97.
Regarding U7A U8G G9A U10G U11C C12U C13G, the “aptazyme ON/OFF ratio” value worked out at 1.09.
Next, U7G U8G G9A U10A U11C C12U: 1.1; U8A G9C U10A U11A C12A C13U: 1.37; G9A U11C C12U C13G: 1.38.
Next, U7A U8G G9C U10C C12A: 1.15.
Next, U7G U8G G9C U11C C12A C13U: 4.45; U7G U8G G9C U11C C12A C13A: 1.37.
As for U7C G9C U10A U11A C12U C13G, the “aptazyme ON/OFF ratio” value came out at 1.06.
Under U7C U8G G9C U10G U11G C12G C13G stands 1.09; under U7C U8C U10A U11G C13U, 1.18; under U7A U10G U11G C12U C13G, 1.23.
Next, U7G U8C G9U U10A U11C: 1.37; U7C U8C U11G: 1.31.
As to U8G U10G U11G C12G C13G, the “aptazyme ON/OFF ratio” value worked out at 1.1.
With U7A U8A G9C U11A C12G, the “aptazyme ON/OFF ratio” value came out at 1.19.
As to U7A U8G G9C U10C U11G C12G C13A, the “aptazyme ON/OFF ratio” value turned out to be 1.18.
As to U7G U8A U11G C13U, the “aptazyme ON/OFF ratio” value amounted to 1.21.
Under U7C U8A G9C C12G C13U stands 1.09.
Under U7C U8C G9C U10A U11A C12U C13U stands 1.17; under U8A G9U U10C U11C C12A C13A, 1.01.
Next, U7G U8A G9A U10A U11A C12G: 1.26; U7C U8C G9U U10C C12U C13U: 1.28.
Take U8G G9U U10G U11A C12U C13G: the “aptazyme ON/OFF ratio” value amounted to 1.05.
